In this series the target is T1, Fur (Pseudomonas aeruginosa PA14) (UniProt Q03456).
T1 sequence: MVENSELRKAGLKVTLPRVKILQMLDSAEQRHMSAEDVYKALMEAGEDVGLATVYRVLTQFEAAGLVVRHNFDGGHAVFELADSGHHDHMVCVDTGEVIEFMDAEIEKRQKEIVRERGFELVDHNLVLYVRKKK
The series can be described thus: EMSA. The settings on record: 25 mM Tris-HCl pH 7.5, 150 mM NaCl, 20 ul, 4 C 30 min; 10% PAGE in 0.5x TBE; no metal stated.

Consider “CTGGTCGAGTCGATGATGGTGGCCGGGCGCTGAGGCCGGGTTTCCCTCTATAAAACGCCAGCGCTCGTCGCTGGCGTTTTCGTTTCCGCCTGTTCAATTGTCCGCCTCTATGGGGACCATGCTTGTCTTTTGCCAAGAAGAAAACAATAATCAATCTCATTATCGTCTGGTGAGGTTGCC (double strand) [PfagA (Ppa4471)]”, for which the binding entry is recorded as “binds”.

These data come from article PMC9561280.
